# Experimental data as given in the nanobody polyreactivity screen of Harvey et al. (2022).
# Assay: yeast display, Sf9 membrane polyspecificity reagent, FACS + sequencing; frameworks hold sequencing errors
# Summary of the method: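 Polyreactivity labels are assigned by the sorting gate from which each nanobody was recovered. The gates were low and high (top ~1%), set on anti-HA fluorescence for expression and streptavidin fluorescence for reagent binding. Before sorting, galactose-induced (36–48 hours) yeast display cells were stained for 1 hour at 4 °C with 10% biotinylated, detergent-solubilized Sf9 membrane reagent.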
row,Sequence,polyreactivity (PSR sort gate)
1,QVQIVESGGGLLQAGGSLRLSCAASGGIFGRYAMGWYRQAPGKERELVAAITTRGTSTYYADSVKGRFTISRDNAMNTVYLQMNSLKPEDTAVYYCSAAYGRHPSSGSWGQGTQVTVSS,high polyreactivity
2,QVQIVESGGGLVKAGGSLRLSCAASGSTFERYAMGWYRQAPGKERELVAAINWSGGGTYYADSVKGRFTISRDNAKNTVYLQMNSLKPEDTAVYYCAADSGTVVFSLWWYEYYYWGQGTQVTVSS,low polyreactivity
3,QVQIVESGGGLVQAGGILRLSCASSRSIFTVNTMGWYRQEHGKETELVAAINSRGGTTYYADSVKGRFTISRDNAKNTVYLQMISLKPEDTAFYYCAARTRIGLLYDYWGQGTQVTVSS,high polyreactivity
4,QVQIVESGGGLVQAGGRLRLSCSASGSIFDWYDMGWYRQAPGKERELVAAITTGGITNYADSVKGRFTLSRDNAKNTVYLQMNSLKPEDTAVYYCAADSLGVYDGDYWGQGTQVTVSS,low polyreactivity
5,QVQIVESGGGLVQAGGSLRFSCAASGRTFWLNDMGWYRHAPGKERELVARISRRGGSTYYAHSVKGRFTISRDHAKNTVYLQIISLKPEDTAVYYCAAAIVTRSYKYDYWGQGTQVTVSS,high polyreactivity
6,QVQIVESGGGLVQAGGSLRIICAASGSTFDPNAMGWYRQAPGKERELVAGISTGGTRTYYADSVKGRFTISRDNAKNTVFLQLKSLKPEDTAVYYCAARFTYNVLDTIYRLYYWGQGTQVTVSS,high polyreactivity
7,QVQIVESGGGLVQAGGSLRISCAASGLTFHRYAMGRYRQAPGKERELVAAINYSGGRTYYADSVKGRFTISRDNAKNTVYLQMNSLKPVDTAVYYCAAPRASGYYWGQGTQVTVSS,high polyreactivity
8,QVQIVESGGGLVQAGGSLRISCAPSGLTFGYYAMGWYRQAPGTERELVAAITYRGGSTYYADSVKGRFTISRDNAKNTVYLQMNSLKPEDTAVYYCATDYFYYDYWGQGTQVTVSS,low polyreactivity
9,QVQIVESGGGLVQAGGSLRLICAASGRIFYRYAMGWYRQAPGKERELVAAISSGSSTNYADSVKGRFTISRDNAKNTVYLQMNSLKPEDTAVYYCNAERYGKSWRYCYWGQGTQVTVSS,high polyreactivity
10,QVQIVESGGGLVQAGGSLRLICAASGSTFSEYAMGWYRQAPGKERELVAAIRWSGGSTSYADSVKGRFTISRVNAKNTVYLQMNSLKPEDTAVYYCAAERFWYDGEVKLYVLSYYWGQGTQVTVSS,low polyreactivity
11,QVQIVESGGGLVQAGGSLRLRCAASGSISGRNGMGWYRQAPGKERELVAAISTSGASTYYADSVKGRFTISRDNSKNTVYLQMNSLKTEDTAGYYCARLWGRRGYGYWGQGTQVTVSS,high polyreactivity
12,QVQIVESGGGLVQAGGSLRLSCAASGFIFWDYAMGWYRQAPGKERELVAAISDSGGDTYYADSVKGRFTISRDNAKNTVYLQMNSLKPEDTAVYYCAADVELWVFRGQQYDYWGQGTQVTVSS,low polyreactivity
13,QVQIVESGGGLVQAGGSLRLSCAASGFNYRGYAMGWYRQAPGKERELVASIRWNGGSTYYADSVKGRFTISRDNAKNTVYLLMNSLKPEDTAVYYCAAAYRYYGVAYGYDWGQGTQVTVSS,high polyreactivity
14,QVQIVESGGGLVQAGGSLRLSCAASGFTFYGYAMGLYRQAPGKERELVATISGRGGRTYYADSVKGLFTISRDNAKNTVYLQMNSLKPVDTAVYFCAAVSSYRYYGDYYWGQGTQVTVSS,high polyreactivity
15,QVQIVESGGGLVQAGGSLRLSCAASGFTFYYYAMGWYRQAPGKERELVAAIDTGGSTNYADSVKGRFTISRDNAKNTVYLQMNRLKPEDTSVYYCNADTPDHYGHYDYWGQGTQVTVSS,low polyreactivity
16,QVQIVESGGGLVQAGGSLRLSCAASGFTIPPYTMGWYRQAPRKEREFVATITASGGSTYYADSVKGRFTISRDNAKNTVYLQMNSLNPEDTAVYYCNADYYSLYFFAWYRTNDFWGQGTQVTVSS,low polyreactivity
17,QVQIVESGGGLVQAGGSLRLSCAASGGTFYLYAKGWYRQAPGKERELVAAITTSGGSTYYADSVKGRFTISRDHAKNTVYLQMNSLKPEDTAVYYCNKDLSSTKFDYWGQGTQVTVSS,low polyreactivity
18,QVQIVESGGGLVQAGGSLRLSCAASGITFGPYAMGWYRQAPWKERELVAAISYSGGNTYYADSVKGRFTISRDNAKNTVYLQMNSLKPEDTAVDYCARVQSLKYNYWGQGTQVTVSS,high polyreactivity
19,QVQIVESGGGLVQAGGSLRLSCAASGITFPRYAMGWYRQAPGKESELVATITSRGGSTYYADSVKGRFTISRDNAKNTVYLQMISLKPEDTAVYYFNDRHYIFWSRYDYWGQGTQVTVSS,high polyreactivity
20,QVQIVESGGGLVQAGGSLRLSCAASGITFSSYAMGWYRQAPGKERELVAAITRTGGRTYYADSVKGRFTISRDNAKNTVYLQMNSLKPEDTAVYYCAAYYIAYYYWGQGTQVTVSS,high polyreactivity
21,QVQIVESGGGLVQAGGSLRLSCAASGNNFRYNTMGWYRQAPGKERELVAVITRRGSSTYYADSVKGRCTISRDNAKNTVYLQMNRLKPEDTAVYYCAAAPYYVTLVTRRDYWGQGTQVTVSS,high polyreactivity
22,QVQIVESGGGLVQAGGSLRLSCAASGRIFRSNTMGWYRPAPGKERELVARISKRGGSTNYADSVKGRFTISRDIAKNTVYLQMNRLKPEDTAVYYCAARYYYAGYYVKYYYWGQGTQVTVSS,high polyreactivity

row,Sequence,polyreactivity (PSR sort gate)
1,QVQIVESGGGLVQAGGSLRLSCAASGRIFYWNVMGWYRQAPGKERELVAAITRSSGGTSTYADSVKGRFTISRVNAKNTVYLQMNSLKPEDTAVYYCATRRRQAKSGRAYDYWGQGTQVTVSS,high polyreactivity
2,QVQIVESGGGLVQAGGSLRLSCAASGRTFAGNAMGWYRQAPGKERELVAGISSGGSTNNADSVKGRFTISRDNAKNTVYLQMNSLNPEDTAVYYCAKRYFRKGYPLFHYAYGYWGQGTQVTVSS,high polyreactivity
3,QVQIVESGGGLVQAGGSLRLSCAASGRTFIGNVMGWYRQAPGKERELVAAISKSGTRTYYADSVKGRFTISRDNAKNTFYLQMNSLKPEDTAVYYCAKDHYPRTDDFGYWGQGTQVTVSS,high polyreactivity
4,QVQIVESGGGLVQAGGSLRLSCAASGRTFKYYAMGWYRPAPGKERELVAAISYSGGSTYYADSVKGRFTISRDNAKNTVYLQMNSLKPEDTAVYYCAARFTRYYSGCDQKYDYWGQGTQVTVSS,high polyreactivity
5,QVQIVESGGGLVQAGGSLRLSCAASGRTFPYYVMGWYRHAPGKERELVATISSSGRTYYADSVKGRFTISRDNAKNTVYLQMNSLKPEDTAVYYCAARFRWNQNYHFYYWGQGTQVTVSS,high polyreactivity
6,QVQIVESGGGLVQAGGSLRLSCAASGRTLYGYAMGWYRQAPGKEREMVASIRSGGSTNYADSVKGRFTISRDNAKNTVYLQMNCLKPEDTAVYYCADDPYYSYGYYHAHGRDVGYWGQGTQVTVSS,low polyreactivity
7,QVQIVESGGGLVQAGGSLRLSCAASGSIFGTYAMGWYRQAPGKERELVAAITRRGGSTFYADSVKGRFTISRDNAKNTVYLQMNSLKPEDTAVYDCAAPPYYWGQGTQVTVSS,high polyreactivity
8,QVQIVESGGGLVQAGGSLRLSCAASGSIFPRMAMGWYIQAPGKERELVAAITTGGITNYADSVKGRFTISRDHAKNTVYLQMNSLNPDDTAVYYCAATSWRYQQSTRYKGRRYYSWGQGTQVTVSS,high polyreactivity
9,QVQIVESGGGLVQAGGSLRLSCAASGSIFRYYALGWYRQAPGKERELVAAISSGTITNYADSVKGRFTISRDNAKNTVYLQMNSLKPEDTAVYYCAADTWYLGYPDYWLDYWGQGTQVTVSS,low polyreactivity
10,QVQIVESGGGLVQAGGSLRLSCAASGSIFSYYAMGWYRQAPGKERELVAGITGGGSTDYADSVKGRFTISRDNAKITVYLQMISLKPEDTAVYYCSTDGKPSFYSFDYCGQGTQVTVSS,low polyreactivity
11,QVQIVESGGGLVQAGGSLRLSCAASGSIFTYNAMGWYRQAPGKERELVAAISYSGVRTYYADSVKGRFTISRDNAKNTVYLQMNSLKPEDTAVYYCNTRYPYSVLKYGYWGQGTQVTVSS,high polyreactivity
12,QVQIVESGGGLVQAGGSLRLSCAASGSIFYYYAMGWYRQAPGKERELVAAITRSGGSTYYADSVKGRFTISRDNEKNTVYLQMNSLKPEDTAVYYCAKDAHAYRDLDYWGQGTQVTVSS,low polyreactivity
13,QVQIVESGGGLVQAGGSLRLSCAASGSIIYRNAMGWYRQAPGKERELVAAIRTSSGSTYYAVSVKGRFTISRDNAKNTVYLQMNSLKPVDTAVYYCGAPRLYGYYSCGQGTQVTVSS,low polyreactivity
14,QVQIVESGGGLVQAGGSLRLSCAASGSILIPYAMGWYRQAPGKERELVAAISRTTRTYYADSVKGRFTISRDNAKNTVYLQMNCLKPEDTAVYYCAADRVYPYFRYGFWGQGTKVTVSS,high polyreactivity
15,QVQIVESGGGLVQAGGSLRLSCAASGSTFEVNAMGWYRQAPGKERELVAVITSGGSTNYADSVKGPFTISRDNAKNTVYLQMNSLKPEDTAVYYCAKDSRTLEDYWGQGTQVTVSS,low polyreactivity
16,QVQIVESGGGLVQAGGSLRLSCAASGSTFGSNAMGWYRQAPGKERELGAAISWTGGSTYYADSVKGRFTISRDNAKNTVYLQLNSLKPEDTAVYYCNKRIAESDTTVTYDYWGQGTQVNVSS,low polyreactivity
17,QVQIVESGGGLVQAGGSLRLSCAASGSTFNYNAMGWYRQAPGKERELVAAITFTGGSTYADSVKGRFTISRDNAKNTVYLQMNSLKPEDTAVYYCAATIQGHDYLGTGYDYWGQGTQVTVSS,low polyreactivity
18,QVQIVESGGGLVQAGGSLRLSCAASGSTFQCYAMGWYRQAPGKERQLVAAINKSGGTTYYADSVKGRFTISRDNAKNTVYLQMNSLNPEDTAVYSCATDNPVVYQPCNMDYWGQGTQVTVSS,low polyreactivity
19,QVQIVESGGGLVQAGGSLRLSCAASGSTFVVYAMGWYRQAPGKERELVAAISYRAGITYYADSVKGRFTISRDNAKNTVYLQMNSLKPEDTAVYYCAADRYYGVGSGYWGQGTQVTVSS,high polyreactivity
20,QVQIVESGGGLVQAGGSLRLSCAAYGSIFQPYAMGWYRQAPGKERELVAAITNGGSTYYADSVKGRFTISRDNAKNTVYLQMNSLKPEDTGVYYCAADVQSSHEYDYWGKGTQVTVSS,low polyreactivity
21,QVQIVESGGGLVQAGGSLRLSCAAYGSIFRLYAMGWYRQAPGKERDFVARIRWRGGSTNYPDSVKASFTISRDNAKNTVFVQMNSQKTVDTAVYYCAAKQGTVRAHTFVPWYDYWGQGTQVSVSS,high polyreactivity
